Positions count from the first letter of the chain named.

One assay deals with T1, GIPR I378M (human) (UniProt P48546).
T1 sequence: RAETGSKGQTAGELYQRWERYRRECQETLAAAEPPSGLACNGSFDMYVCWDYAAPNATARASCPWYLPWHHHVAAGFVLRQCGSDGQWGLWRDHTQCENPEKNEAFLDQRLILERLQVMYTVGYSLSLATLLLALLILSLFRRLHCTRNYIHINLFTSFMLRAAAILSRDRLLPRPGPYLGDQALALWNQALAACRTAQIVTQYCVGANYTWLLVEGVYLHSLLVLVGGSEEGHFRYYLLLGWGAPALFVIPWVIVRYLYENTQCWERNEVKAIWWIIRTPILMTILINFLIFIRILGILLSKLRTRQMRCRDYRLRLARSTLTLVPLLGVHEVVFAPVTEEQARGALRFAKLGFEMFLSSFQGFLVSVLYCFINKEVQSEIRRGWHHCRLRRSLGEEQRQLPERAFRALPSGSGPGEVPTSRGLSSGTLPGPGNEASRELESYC

The target of the next assay is T2, GIPR A294V (human) (UniProt P48546).
T2 sequence: T1 sequence with A273V, M357I

In another assay the target is T3, GIPR K397N (human) (UniProt P48546).
T3 sequence: T1 sequence with M357I, K376N

A further assay addresses T4, GIPR R190Q (human) (UniProt P48546).
T4 sequence: T1 sequence with R169Q, M357I

For the next assay, the target named is T5, GIPR S415I (human) (UniProt P48546).
T5 sequence: T1 sequence with M357I, S394I

Another assay concerns the target T6, GIPR G449A (human) (UniProt P48546).
T6 sequence: T1 sequence with M357I, G428A

As for “β-arrestin 2 (Rluc8-Arrestin-3-Sp1) (from UniProt P32121 1-409) (natural protein)”, the β-arrestin 2 recruitment (BRET) on stimulation with GIP(1-42): logEC50 (Arrestin) (log M (inferred)) is -9.13 with GIPR I378M (human); -9.01 in the assay with GIPR A294V (human); -8.9 in the assay with GIPR K397N (human); -8.86 with GIPR R190Q (human); -9.12 in the assay with GIPR S415I (human); -9.24 with GIPR G449A (human).

For the origin of these results see paper PMC11272584 (Nature Metabolism, 2024).
